Experimental findings from PMC9360328, “Tenuous Transcriptional Threshold of Human Sex Determination. I. SRY and Swyer Syndrome at the Edge of Ambiguity” are described below.

For the data set, the target named is SRY HMG box WT (Homo sapiens, UniProt Q05066 56-141). The experiment in a line: FRET titration; 15 C, 25 nM DNA; FRET titration: 10 mM potassium phosphate, 10 mM Tris-HCl, 140 mM KCl, 1 mM EDTA, 1 mM DTT, pH 8.4, 15 C, 25 nM DNA; PGE: 10 nM DNA, 20 nM protein, 0.5x TBE, 4. The settings on record: protein: recombinant; label: 5'-6-FAM (hexanyl linker) on upper strand; 5'-TAMRA (hexanyl linker) on lower strand; blunt.
Chain of SRY HMG box WT (Q05066 56-141): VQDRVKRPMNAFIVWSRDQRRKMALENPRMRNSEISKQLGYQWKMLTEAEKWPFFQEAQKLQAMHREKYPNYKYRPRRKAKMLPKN

B1: 15-bp consensus SRY site, FRET-labeled (dsDNA)
DNA 1: TCGGTGATTGTTCAG
DNA 2: CTGAACAATCACCGA
On to B1, for which the dissociation constant Kd came out at 10 ± 3 nM.
